Here are results for 37 sequences from the supplement of paper PMC10567573.

± gives the standard deviation.

The series in a line: protein stability index of a GFP-peptide fusion (GPS, HEK-293T) (PSI 1-6); higher = more stable. Conditions: c terminus: a fixed tail appended.
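Further: 24-mer peptide tiles fused after GFP, lentivirally expressed, FACS-sorted into six equal bins by GFP/DsRed ratio, decoded by Illumina sequencing, PSI is the read-weighted mean bin number.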

SSGHQNRRFSSEDLEDPLGGLLSY [FBF1]: the protein stability index reads like this: (treatment: DMSO) 3.6 ± 0.48; (treatment: MLN4924 1 uM, 8 h) 3.89 ± 0.36.
In turn, SSGLQDVTGPDNGVRESETEQGFG [NFE2L1] gave a protein stability index (treatment: DMSO) of 5.6 ± 0.17 and a protein stability index (treatment: MLN4924 1 uM, 8 h) of 5.39 ± 0.35.
The corresponding values for SSIGRLFGKKEKGRLIQLSRDGAT [PPFIA4] are 3.19 ± 0.48 and 3.38 ± 0.54.
SSLEFTELLTLVNRKVSQRRVDFC [CASP6]: the protein stability index (treatment: DMSO) came to 2.37 ± 0.43 and the protein stability index (treatment: MLN4924 1 uM, 8 h) was determined as 2.32 ± 0.087.
Turning to SSPVDLVTATDQKVEKMLISSIKE [IMPA1], the protein stability index reads like this: (treatment: DMSO) 4.38 ± 0.15; (treatment: MLN4924 1 uM, 8 h) 4.28 ± 0.1.
Turning to SSSSGPGHGEPDVLKDELQLYGDA [TMEM40], the protein stability index was determined as 5.3 ± 0.15 (treatment: DMSO) and 5.32 ± 0.19 (treatment: MLN4924 1 uM, 8 h).
In the case of SSSVSISHSASATGNVCIEEIDVD [LMNB1], the protein stability index is 5.38 ± 0.15 (treatment: DMSO) and 5.4 ± 0.21 (treatment: MLN4924 1 uM, 8 h).
Take SSTGNTALTYACAGGYVDVVKVLL [ANKRD17]: the protein stability index was 2.07 ± 0.55 (treatment: DMSO) and 2.23 ± 0.3 (treatment: MLN4924 1 uM, 8 h).
SSWDIDGRATKRRKKSGDLKKAKV [FBXO34] returned a protein stability index (treatment: DMSO) of 4.8 ± 0.29 and a protein stability index (treatment: MLN4924 1 uM, 8 h) of 4.79 ± 0.11.
As for STGTSRWPSAKSAGWTLATLGEQG [SCNN1D], the protein stability index runs as follows: (treatment: DMSO) 3.17 ± 0.16; (treatment: MLN4924 1 uM, 8 h) 3.16 ± 0.31.
Take STMRRMALRPTAFSGCLNCSKVSE [EMID1]: the protein stability index is, setting by setting: (treatment: DMSO) 2.5 ± 0.21; (treatment: MLN4924 1 uM, 8 h) 3.13 ± 0.62.
The corresponding values for STSLSFLDSCNSLTPKSTPVKTLP [MYBL2] are 3.9 ± 0.13 and 3.97 ± 0.36.
For the sequence SVKIPVRNHGILMETHKELKPLLS [LYSMD4], the protein stability index by setting is: (treatment: DMSO) 2.86 ± 0.13; (treatment: MLN4924 1 uM, 8 h) 3.17 ± 0.36.
Turning to SVLMGHGVCMGLVAAACACGFTVA [OR10K2], the protein stability index was 2.9 ± 0.45 (treatment: DMSO) and 3.08 ± 0.41 (treatment: MLN4924 1 uM, 8 h).
With SVPPVAGAPSVGQPGAGFGMPPAG [SNAP91], the protein stability index is, setting by setting: (treatment: DMSO) 4.38 ± 0.24; (treatment: MLN4924 1 uM, 8 h) 4.38 ± 0.058.
Take SWEKVTGHNSPLYKRQEESGAAAS [CHIT1]: the protein stability index worked out at 4.77 ± 0.37 (treatment: DMSO) and 4.51 ± 0.32 (treatment: MLN4924 1 uM, 8 h).
On to SWVSELLWSLFVPFTVYQVRWLRP [AUP1], for which the protein stability index is, setting by setting: (treatment: DMSO) 3.12 ± 0.27; (treatment: MLN4924 1 uM, 8 h) 2.81 ± 0.51.
Turning to SYFKCVQKEVLPSMRKIVATWMLE [CCND1], the protein stability index was 2.91 ± 0.76 (treatment: DMSO) and 2.46 ± 0.37 (treatment: MLN4924 1 uM, 8 h).
Turning to SYLSLTSEDNTSFDRKKKSISLMY [SLA], the protein stability index worked out at 2.94 ± 0.18 (treatment: DMSO) and 2.95 ± 0.25 (treatment: MLN4924 1 uM, 8 h).
For the sequence SYSIQKVIGFAKMIPGFRDLTSED [VDR], the protein stability index is 2.52 ± 0.29 (treatment: DMSO) and 2.88 ± 0.12 (treatment: MLN4924 1 uM, 8 h).
For SYSSCGDFHYCDREHVCRKDQRNP [RBMY1A1], in that order: 4.06 ± 0.41 and 4.09 ± 0.1.
As to SYTTTTTITAPPSRVLQNGGDKLE [SCD], the protein stability index is 4.85 ± 0.23 (treatment: DMSO) and 4.81 ± 0.29 (treatment: MLN4924 1 uM, 8 h).
Consider SYVHILSAILQFPSTLGRCKAFST [OR10K2], for which the protein stability index is, setting by setting: (treatment: DMSO) 3.38 ± 0.61; (treatment: MLN4924 1 uM, 8 h) 3.01 ± 0.63.
Regarding TADEIPMEPGDIIGVAGNHWDGYS [FUT8], the protein stability index runs as follows: (treatment: DMSO) 4.21 ± 0.32; (treatment: MLN4924 1 uM, 8 h) 4.16 ± 0.23.
For TAEAEELKPFFMKEVGSHFDDFVT [SOAT1], the protein stability index runs as follows: (treatment: DMSO) 3.91 ± 0.25; (treatment: MLN4924 1 uM, 8 h) 3.94 ± 0.34.
For TAERKQEQKTGTEAEAADSGAVGA [MFSD9], in that order: 5.56 ± 0.28 and 5.65 ± 0.23.
For TAVHGRFTRSQTLIQNGGEIDCVD [ANKRD44], the protein stability index runs as follows: (treatment: DMSO) 4.34 ± 0.14; (treatment: MLN4924 1 uM, 8 h) 4.48 ± 0.19.
The corresponding values for TCTLLLLYSLAPTMGAVVLSSTLL [MFSD9] are 3.22 ± 0.52 and 3.17 ± 0.28.
For TDNGTFNLSRGQTPLTEGSEDLDG [RETREG3], in that order: 5.25 ± 0.26 and 5.45 ± 0.25.
For the sequence TEFKELDGLREALANLRGLSEEER [CCDC89], the protein stability index (treatment: DMSO) stood at 5.05 ± 0.28 and the protein stability index (treatment: MLN4924 1 uM, 8 h) is 4.85 ± 0.28.
In turn, TFESPADAKDAARDMNGKSLDGKA [RBMX] had a protein stability index (treatment: DMSO) of 5.39 ± 0.3 and a protein stability index (treatment: MLN4924 1 uM, 8 h) of 5.55 ± 0.12.
For TFFEVSPLCNFNITESFTELARIV [RAB40B], in that order: 2.24 ± 0.51 and 2.14 ± 0.16.
For TFTASFSGKVFPFFAVWKKGSCLT [TRIM15], in that order: 2.46 ± 0.47 and 2.34 ± 0.42.
For TGECKELEKKNEALKERADSLAKE [ATF4], in that order: 5.54 ± 0.3 and 5.59 ± 0.18.
In the case of TGLNNGRIKIWDVYTGKLLLNLVD [WSB1], the protein stability index runs as follows: (treatment: DMSO) 2.54 ± 1.3; (treatment: MLN4924 1 uM, 8 h) 2.25 ± 0.61.
On to TGRFSFTLPYPVKIKVRFSFFLQI [HACD3], for which the protein stability index (treatment: DMSO) is 3.14 ± 0.37 and the protein stability index (treatment: MLN4924 1 uM, 8 h) is 2.92 ± 0.17.
For the sequence THACREYLKNLPLLSKYCGYREDN [TPH1], the protein stability index reads like this: (treatment: DMSO) 2.22 ± 0.26; (treatment: MLN4924 1 uM, 8 h) 2.18 ± 0.41.
